Test results from PMC4576506.

Target: recombinant human glycine receptor α1 subunit (hGlyRα1) homopentamer, detergent solubilized (human) (UniProt P23415)
Assay: SEC

stoichiometry N: 5
Substance: recombinant human glycine receptor α1 subunit (hGlyRα1) homopentamer, detergent solubilized (from UniProt P23415-2 29-449)
